Source: IntAct's records for PubMed 16619031

B1: DNA replication regulator SLD2 (Saccharomyces cerevisiae), P34252 (parent)
chain: MYSFELDKLKIELKTWEHDFIDKNKREPTRDDIKSLRTVRQMYKQYSTLKKKQSLQRQKVDTQESVELPAHKKDHDEVVEIGPTPQVYGKAISIFDMNLSPIKPIYMTFTNNIDVNNDNSKTISNESSPRKTILLKSSPADRTLVAEPISSVKRQLNFQMLNASSTRTPTSSPCKNRNGKLVEIKKCSPTINPPLESGKPSGYYGPNSPLKLDEENIHLNISLNSSTKRRLQIAYPSLQKTPSKDQADISTSFSPSPLIRRPLTKSLIELAREHTEIVKEFGVLQEEDIEEEEEGEEGENGYDEKNHEDDFGLEDELIRPKVVKDIFQEDDDNDDSQAREDTFIRKRPKRRKVIRRLRDNDPETETAGFERDVHKELVKLKRRKVAEFLGSTSQISDTEFEHDPEASSGVVSSEQKPTAKRKGRKKYNLVSNNFRRLKLPKKNRFSNGRWGRR
partner: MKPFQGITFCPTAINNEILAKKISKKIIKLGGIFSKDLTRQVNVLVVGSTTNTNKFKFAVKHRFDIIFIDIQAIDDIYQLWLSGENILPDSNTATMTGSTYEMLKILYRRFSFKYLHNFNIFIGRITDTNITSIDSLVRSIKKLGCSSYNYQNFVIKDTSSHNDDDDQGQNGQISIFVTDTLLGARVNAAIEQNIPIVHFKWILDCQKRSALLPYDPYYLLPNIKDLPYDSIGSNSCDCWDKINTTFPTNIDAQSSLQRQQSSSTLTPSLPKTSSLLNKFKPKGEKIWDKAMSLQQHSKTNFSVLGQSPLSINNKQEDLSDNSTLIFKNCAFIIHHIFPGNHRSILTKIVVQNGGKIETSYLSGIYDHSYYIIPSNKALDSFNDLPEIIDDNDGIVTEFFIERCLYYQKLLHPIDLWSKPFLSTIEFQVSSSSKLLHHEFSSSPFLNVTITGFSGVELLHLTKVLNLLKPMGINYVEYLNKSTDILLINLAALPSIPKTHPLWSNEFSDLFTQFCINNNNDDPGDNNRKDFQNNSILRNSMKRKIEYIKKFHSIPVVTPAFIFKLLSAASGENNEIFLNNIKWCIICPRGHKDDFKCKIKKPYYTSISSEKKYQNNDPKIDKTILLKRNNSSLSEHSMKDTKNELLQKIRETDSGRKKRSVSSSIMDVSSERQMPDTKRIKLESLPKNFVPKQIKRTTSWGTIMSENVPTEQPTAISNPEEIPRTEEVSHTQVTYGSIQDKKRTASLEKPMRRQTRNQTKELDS

Variants of: B1
Settings: with dpb11_yeast DPB11, P47027

Effect of a mutation on the interaction, disrupting interaction:
MYSFELDKLKIELKTWEHDFIDKNKREPTRDDIKSLRTVRQMYKQYSTLKKKQSLQRQKVDTQESVELPAHKKDHDEVVEIGPTPQVYGKAISIFDMNLSPIKPIYMTFTNNIDVNNDNSKTISNESAPRKTILLKSSPADRTLVAEPISSVKRQLNFQMLNASSTRTPTSSPCKNRNGKLVEIKKCSPTINPPLESGKPSGYYGPNSPLKLDEENIHLNISLNSSTKRRLQIAYPSLQKTPSKDQADISTSFSPSPLIRRPLTKSLIELAREHTEIVKEFGVLQEEDIEEEEEGEEGENGYDEKNHEDDFGLEDELIRPKVVKDIFQEDDDNDDSQAREDTFIRKRPKRRKVIRRLRDNDPETETAGFERDVHKELVKLKRRKVAEFLGSTSQISDTEFEHDPEASSGVVSSEQKPTAKRKGRKKYNLVSNNFRRLKLPKKNRFSNGRWGRR [S128A]
MYSFELDKLKIELKTWEHDFIDKNKREPTRDDIKSLRTVRQMYKQYSTLKKKQSLQRQKVDTQESVELPAHKKDHDEVVEIGPTPQVYGKAISIFDMNLSPIKPIYMTFTNNIDVNNDNSKTISNESSPRKTILLKSSPADRTLVAEPISSVKRQLNFQMLNASSTRAPTSSPCKNRNGKLVEIKKCSPTINPPLESGKPSGYYGPNSPLKLDEENIHLNISLNSSTKRRLQIAYPSLQKTPSKDQADISTSFSPSPLIRRPLTKSLIELAREHTEIVKEFGVLQEEDIEEEEEGEEGENGYDEKNHEDDFGLEDELIRPKVVKDIFQEDDDNDDSQAREDTFIRKRPKRRKVIRRLRDNDPETETAGFERDVHKELVKLKRRKVAEFLGSTSQISDTEFEHDPEASSGVVSSEQKPTAKRKGRKKYNLVSNNFRRLKLPKKNRFSNGRWGRR [T168A]
MYSFELDKLKIELKTWEHDFIDKNKREPTRDDIKSLRTVRQMYKQYSTLKKKQSLQRQKVDTQESVELPAHKKDHDEVVEIGPTPQVYGKAISIFDMNLAPIKPIYMTFTNNIDVNNDNSKTISNESSPRKTILLKSSPADRTLVAEPISSVKRQLNFQMLNASSTRTPTSSPCKNRNGKLVEIKKCSPTINPPLESGKPSGYYGPNSPLKLDEENIHLNISLNSSTKRRLQIAYPSLQKTPSKDQADISTSFSPSPLIRRPLTKSLIELAREHTEIVKEFGVLQEEDIEEEEEGEEGENGYDEKNHEDDFGLEDELIRPKVVKDIFQEDDDNDDSQAREDTFIRKRPKRRKVIRRLRDNDPETETAGFERDVHKELVKLKRRKVAEFLGSTSQISDTEFEHDPEASSGVVSSEQKPTAKRKGRKKYNLVSNNFRRLKLPKKNRFSNGRWGRR [S100A]
MYSFELDKLKIELKTWEHDFIDKNKREPTRDDIKSLRTVRQMYKQYSTLKKKQSLQRQKVDTQESVELPAHKKDHDEVVEIGPTPQVYGKAISIFDMNLSPIKPIYMTFTNNIDVNNDNSKTISNESSPRKTILLKSSPADRTLVAEPISSVKRQLNFQMLNASSTRTPTSSPCKNRNGKLVEIKKCSPTINPPLESGKPSGYYGPNSPLKLDEENIHLNISLNSSTKRRLQIAYPSLQKAPSKDQADISTSFSPSPLIRRPLTKSLIELAREHTEIVKEFGVLQEEDIEEEEEGEEGENGYDEKNHEDDFGLEDELIRPKVVKDIFQEDDDNDDSQAREDTFIRKRPKRRKVIRRLRDNDPETETAGFERDVHKELVKLKRRKVAEFLGSTSQISDTEFEHDPEASSGVVSSEQKPTAKRKGRKKYNLVSNNFRRLKLPKKNRFSNGRWGRR [T241A]
MYSFELDKLKIELKTWEHDFIDKNKREPTRDDIKSLRTVRQMYKQYSTLKKKQSLQRQKVDTQESVELPAHKKDHDEVVEIGPTPQVYGKAISIFDMNLSPIKPIYMTFTNNIDVNNDNSKTISNESSPRKTILLKSSPADRTLVAEPISSVKRQLNFQMLNASSTRTPTSSPCKNRNGKLVEIKKCSPTINPPLESGKPSGYYGPNAPLKLDEENIHLNISLNSSTKRRLQIAYPSLQKTPSKDQADISTSFSPSPLIRRPLTKSLIELAREHTEIVKEFGVLQEEDIEEEEEGEEGENGYDEKNHEDDFGLEDELIRPKVVKDIFQEDDDNDDSQAREDTFIRKRPKRRKVIRRLRDNDPETETAGFERDVHKELVKLKRRKVAEFLGSTSQISDTEFEHDPEASSGVVSSEQKPTAKRKGRKKYNLVSNNFRRLKLPKKNRFSNGRWGRR [S208A]
MYSFELDKLKIELKTWEHDFIDKNKREPTRDDIKSLRTVRQMYKQYSTLKKKQSLQRQKVDTQESVELPAHKKDHDEVVEIGPTPQVYGKAISIFDMNLSPIKPIYMTFTNNIDVNNDNSKTISNESSPRKTILLKSSPADRTLVAEPISSVKRQLNFQMLNASSTRTPTSAPCKNRNGKLVEIKKCSPTINPPLESGKPSGYYGPNSPLKLDEENIHLNISLNSSTKRRLQIAYPSLQKTPSKDQADISTSFSPSPLIRRPLTKSLIELAREHTEIVKEFGVLQEEDIEEEEEGEEGENGYDEKNHEDDFGLEDELIRPKVVKDIFQEDDDNDDSQAREDTFIRKRPKRRKVIRRLRDNDPETETAGFERDVHKELVKLKRRKVAEFLGSTSQISDTEFEHDPEASSGVVSSEQKPTAKRKGRKKYNLVSNNFRRLKLPKKNRFSNGRWGRR [S172A]

Variants of: B1
Settings: with dpb11_yeast DPB11, P47027
Remark: another data set of the same source

Effect of a mutation on the interaction, disrupting interaction:
MYSFELDKLKIELKTWEHDFIDKNKREPTRDDIKSLRTVRQMYKQYSTLKKKQSLQRQKVDTQESVELPAHKKDHDEVVEIGPAPQVYGKAISIFDMNLSPIKPIYMTFTNNIDVNNDNSKTISNESSPRKTILLKSSPADRTLVAEPISSVKRQLNFQMLNASSTRTPTSSPCKNRNGKLVEIKKCSPTINPPLESGKPSGYYGPNSPLKLDEENIHLNISLNSSTKRRLQIAYPSLQKTPSKDQADISTSFSPSPLIRRPLTKSLIELAREHTEIVKEFGVLQEEDIEEEEEGEEGENGYDEKNHEDDFGLEDELIRPKVVKDIFQEDDDNDDSQAREDTFIRKRPKRRKVIRRLRDNDPETETAGFERDVHKELVKLKRRKVAEFLGSTSQISDTEFEHDPEASSGVVSSEQKPTAKRKGRKKYNLVSNNFRRLKLPKKNRFSNGRWGRR [T84A]
